The target in test [1] is GST-ctβ382-401 Y390F (mouse | not stated) (UniProt P09690). Description: far-Western, overlay or dot blot.
Test [2] concerns the target acetylcholine receptor containing beta subunit phosphorylated at Y390 (mouse (endogenous in myotubes)) (UniProt P04756). Put plainly: co-IP.

The results in this text go back to publication PMC2606670.

Chain of UniProt P04756 (P04756 21-457, chain 1 of 4): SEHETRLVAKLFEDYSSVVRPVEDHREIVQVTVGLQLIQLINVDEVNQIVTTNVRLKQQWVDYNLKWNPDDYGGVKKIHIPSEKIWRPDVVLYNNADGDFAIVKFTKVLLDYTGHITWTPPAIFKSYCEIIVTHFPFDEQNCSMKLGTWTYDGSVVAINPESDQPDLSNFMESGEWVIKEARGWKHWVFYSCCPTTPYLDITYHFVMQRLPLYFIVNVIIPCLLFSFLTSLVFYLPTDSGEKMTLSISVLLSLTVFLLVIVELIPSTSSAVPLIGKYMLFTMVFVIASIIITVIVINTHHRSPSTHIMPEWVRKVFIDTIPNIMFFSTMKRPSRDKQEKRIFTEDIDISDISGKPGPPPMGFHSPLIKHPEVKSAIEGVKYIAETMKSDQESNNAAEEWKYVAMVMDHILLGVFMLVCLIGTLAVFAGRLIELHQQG
Chain of UniProt P04756 (P09690 24-501, chain 2 of 4, further chain): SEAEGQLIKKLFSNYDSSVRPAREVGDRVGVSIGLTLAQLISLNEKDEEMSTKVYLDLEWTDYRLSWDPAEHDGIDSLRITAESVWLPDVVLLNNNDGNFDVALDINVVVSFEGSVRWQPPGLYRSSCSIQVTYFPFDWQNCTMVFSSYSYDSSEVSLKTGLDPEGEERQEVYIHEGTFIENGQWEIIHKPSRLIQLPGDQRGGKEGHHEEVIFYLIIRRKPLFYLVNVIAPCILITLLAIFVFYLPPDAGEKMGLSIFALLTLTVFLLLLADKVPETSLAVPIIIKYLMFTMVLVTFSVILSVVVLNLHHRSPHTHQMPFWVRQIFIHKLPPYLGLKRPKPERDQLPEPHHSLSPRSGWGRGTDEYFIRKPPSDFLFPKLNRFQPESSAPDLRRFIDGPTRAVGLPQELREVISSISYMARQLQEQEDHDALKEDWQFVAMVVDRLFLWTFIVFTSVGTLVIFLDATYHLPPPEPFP
Chain of UniProt P04756 (P02716 25-520, chain 3 of 4, further chain): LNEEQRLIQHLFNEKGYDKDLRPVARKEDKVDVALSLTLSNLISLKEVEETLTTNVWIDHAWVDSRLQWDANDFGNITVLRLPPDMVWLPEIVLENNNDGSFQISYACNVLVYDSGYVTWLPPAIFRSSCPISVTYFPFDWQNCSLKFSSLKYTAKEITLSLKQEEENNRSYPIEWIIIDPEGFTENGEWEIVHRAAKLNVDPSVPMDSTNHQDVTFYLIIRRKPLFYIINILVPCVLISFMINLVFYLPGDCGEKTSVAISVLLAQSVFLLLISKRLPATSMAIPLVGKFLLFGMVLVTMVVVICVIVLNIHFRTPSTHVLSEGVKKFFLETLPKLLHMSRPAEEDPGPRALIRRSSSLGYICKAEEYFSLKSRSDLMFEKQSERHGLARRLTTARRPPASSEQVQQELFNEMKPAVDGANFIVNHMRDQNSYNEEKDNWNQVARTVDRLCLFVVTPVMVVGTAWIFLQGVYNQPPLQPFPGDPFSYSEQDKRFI
Chain of UniProt P04756 (P04760 23-519, chain 4 of 4, further chain): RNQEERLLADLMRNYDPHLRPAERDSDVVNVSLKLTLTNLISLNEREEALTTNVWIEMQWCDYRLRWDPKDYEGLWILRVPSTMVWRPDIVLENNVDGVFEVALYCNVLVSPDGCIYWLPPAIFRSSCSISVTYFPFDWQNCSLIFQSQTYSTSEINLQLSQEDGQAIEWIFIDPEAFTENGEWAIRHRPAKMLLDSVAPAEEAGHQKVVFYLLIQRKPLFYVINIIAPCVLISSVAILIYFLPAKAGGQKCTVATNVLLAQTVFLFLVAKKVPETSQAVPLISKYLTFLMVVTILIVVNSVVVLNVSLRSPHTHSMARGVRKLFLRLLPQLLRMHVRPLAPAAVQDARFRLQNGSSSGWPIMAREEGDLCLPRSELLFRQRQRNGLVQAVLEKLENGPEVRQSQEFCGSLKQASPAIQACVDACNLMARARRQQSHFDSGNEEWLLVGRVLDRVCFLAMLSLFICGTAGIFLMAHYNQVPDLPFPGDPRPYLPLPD

B1: GST-rapsyn (natural protein)
chain: MGQDQTKQQIEKGLQLYQSNQTEKALQVWMKVLEKGSDLVGRFRVLGCLVTAHSEMGRYKEMLKFAVVQIDTARGLEDADFLLESYLNLARSNEKLCEFHKTISYCKTCLGLPGTRAGAQLGGQVSLSMGNAFLGLSLFQKALESFEKALRYAHNNDDTMLECRVCCSLGSFYAQVKDYEKALFFPCKAAELVNDYGKGWSLKYRAMSQYHMAVAYRLLGHLGSAMECCEESMKIALQHGDRPLQALCLLCFADIHRSRGDLETAFPRYDSAMSIMTEIGNRLGQVHVLLGVAKCWMARKVQDKALDAIEKAQDLAEEVGNKLSQLKLHCLSESIYRSKGLQRELRTHVVRFHECVEETELYCGLCGESIGERNSRLQALPCSHIFHLRCLQNNGTRSCPNCRRSSMKPGFV
In turn, B1 came in with a % of binding to β382-401 WT (% of binding to β382-401 WT) in test [1] of 92.

B2: rapsyn, endogenous in mouse myotubes (natural protein)
chain: MGQDQTKQQIEKGLQLYQSNQTEKALQVWMKVLEKGSDLVGRFRVLGCLVTAHSEMGRYKEMLKFAVVQIDTARGLEDADFLLESYLNLARSNEKLCEFHKTISYCKTCLGLPGTRAGAQLGGQVSLSMGNAFLGLSLFQKALESFEKALRYAHNNDDTMLECRVCCSLGSFYAQVKDYEKALFFPCKAAELVNDYGKGWSLKYRAMSQYHMAVAYRLLGHLGSAMECCEESMKIALQHGDRPLQALCLLCFADIHRSRGDLETAFPRYDSAMSIMTEIGNRLGQVHVLLGVAKCWMARKVQDKALDAIEKAQDLAEEVGNKLSQLKLHCLSESIYRSKGLQRELRTHVVRFHECVEETELYCGLCGESIGERNSRLQALPCSHIFHLRCLQNNGTRSCPNCRRSSMKPGFV
Regarding B2, the fold rapsyn associated, against AChR with non-phosphorylated β subunit in test [2] amounted to 2.3 fold.
